From doi:10.1101/2024.06.06.597711

T1: CtTrl1-LIG WT (tRNA ligase LIG domain) (Chaetomium thermophilum (syn. …, UniProt G0S6G2 1-414))
T1 sequence: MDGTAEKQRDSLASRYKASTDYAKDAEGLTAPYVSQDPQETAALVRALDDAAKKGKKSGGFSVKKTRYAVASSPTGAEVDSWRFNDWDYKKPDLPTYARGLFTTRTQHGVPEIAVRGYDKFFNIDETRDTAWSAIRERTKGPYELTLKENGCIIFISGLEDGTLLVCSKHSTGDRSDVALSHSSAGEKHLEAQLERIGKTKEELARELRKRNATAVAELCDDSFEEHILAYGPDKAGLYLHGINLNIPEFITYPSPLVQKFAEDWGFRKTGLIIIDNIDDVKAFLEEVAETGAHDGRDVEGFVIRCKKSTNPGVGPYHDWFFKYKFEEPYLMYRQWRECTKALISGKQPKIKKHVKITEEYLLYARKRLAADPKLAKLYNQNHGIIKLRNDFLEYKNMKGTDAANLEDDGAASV

T2: CtTrl1-LIG K148N (Chaetomium thermophilum (syn. …, UniProt G0S6G2 1-414, K148N))
T2 sequence: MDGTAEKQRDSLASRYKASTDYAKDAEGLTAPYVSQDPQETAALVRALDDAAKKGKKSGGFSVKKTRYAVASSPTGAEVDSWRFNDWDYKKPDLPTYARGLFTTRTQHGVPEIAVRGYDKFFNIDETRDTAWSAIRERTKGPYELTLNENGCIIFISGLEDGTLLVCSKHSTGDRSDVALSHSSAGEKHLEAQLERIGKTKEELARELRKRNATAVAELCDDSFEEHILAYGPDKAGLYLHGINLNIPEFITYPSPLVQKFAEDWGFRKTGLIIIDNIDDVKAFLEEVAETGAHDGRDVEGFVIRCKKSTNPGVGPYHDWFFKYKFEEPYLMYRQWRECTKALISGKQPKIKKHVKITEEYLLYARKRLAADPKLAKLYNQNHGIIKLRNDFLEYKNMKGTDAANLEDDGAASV


Columns and labels:
[1] = target: T1, CtTrl1-LIG WT (tRNA ligase LIG domain); assay: X-ray crystallography
[2] = target: T1, CtTrl1-LIG WT (tRNA ligase LIG domain); assay: EMSA
CtTrl1-LIG K148N = target: T2, CtTrl1-LIG K148N; assay: EMSA

Row | Binder | binding result [1] | binding result [2] | binding result (CtTrl1-LIG K148N)
1 | sctRNAPhe-3'exon-7nt (dsRNA, 5'-phosphate; one strand 5'-adenylylated (AppRNA) in the crystal) RNA 1: AUCUGGA RNA 2: AUCUGGA | binds | – | –
2 | AUCUGGAUUUUGCCAGACUGAAG (structured_RNA, 5'-phosphate; terminal phosphate at 3' end (ordered as [Phos]; 2'-P form in the EMSA not stated)) [ASL-4U] | – | binds | binds
